The values that follow come from the supplement of paper PMC7877785.

± gives the uncertainty stated by the source.

The series in a line: self-splicing fitness, log relative to wild type (ln ratio); higher = more splicing; Tetrahymena group I intron in knt gene, E. coli kanamycin selection, DiMSum; sequences stand for … in CUCUCU…GGAGGGAAAAGUUAUCAGGCAUGCACCUGGUAGCUAGUCUUUAAACCAAUAGAUUGCAUCGGUUUAAAAGGCAAGACCGUCAAAUUGCGGGAAAGGGGUCAACAGCCGUUCAGUACCAAGUCUCAGGGGAAACUUUGAGAUGGCCUUGCAAAGGGUAUGGUAAUAAGCUGACGGACAUGGUCCUAACCACGCAGCCAAGUCCUAAGUCAACAGAUCUUCUGUUGAUAUGGAUGCAGUUCACAGACUAAAUGUCGGUCGGGGAAGAUGUAUUCUUCUCAUAAGAUAUAGUCGGACCUCUCCUUAAUGGGAGCUAGCGGAUGAAGUGAUGCAACACUGGAGCCGCUGGGAACUAAUUUGUAUGCGAAAGUAUAUUGAUUAGUUUUGGAGUACUCGUGGUCG
The procedure, abridged: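 Library with all eight P1ex-region intron nucleotides randomised, intron inside the knt kanamycin-resistance gene on pET-22b(+), in E. coli BL21(DE3). Cells grew overnight at 37°C or 30°C on LB agar with or without 25 μg/mL kanamycin (plus 100 μg/mL carbenicillin, 50 μM IPTG, 0.2% rhamnose), in six replicate transformations. Pooled colonies were amplicon-sequenced on Illumina HiSeq 2500. DiMSum fitness is the error-weighted combination of wild-type-normalised replicate fold changes, kanamycin versus none.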

For AUUUAGCAAUAUUACGGAUG, the “self-splicing fitness (ln)” value (30 °C) is -1.94 ± 0.14 and the “self-splicing fitness (ln)” value (37 °C) was -1.91 ± 0.2.
On to AUUUAGCAAUAUUACGGCAC, for which the “self-splicing fitness (ln)” value (30 °C) is -0.95 ± 0.27.
For AUUUAGCAAUAUUACGGCGC, the “self-splicing fitness (ln)” value was -0.408 ± 0.16 (30 °C) and -0.248 ± 0.22 (37 °C).
On to AUUUAGCAAUAUUACGGCUC, for which the “self-splicing fitness (ln)” value runs as follows: (30 °C) -0.153 ± 0.097; (37 °C) 0.0525 ± 0.11.
For the sequence AUUUAGCAAUAUUACGGCUG, the “self-splicing fitness (ln)” value by setting is: (30 °C) -0.937 ± 0.12; (37 °C) -0.723 ± 0.13.
The matching figures for AUUUAGCAAUAUUACGGGAC: -2.36 ± 0.32 and -1.32 ± 0.26.
As to AUUUAGCAAUAUUACGGGUC, the “self-splicing fitness (ln)” value (37 °C) is -2.23 ± 0.34.
As to AUUUAGCAAUAUUACGGUGC, the “self-splicing fitness (ln)” value (30 °C) is -4.12 ± 0.46 and the “self-splicing fitness (ln)” value (37 °C) is -1.55 ± 0.23.
For the sequence AUUUAGCAAUAUUACGGUUG, for the setting “30 °C”, the “self-splicing fitness (ln)” value was -2.68 ± 0.39.
As to AUUUAGCAAUAUUACGUACG, the “self-splicing fitness (ln)” value reads like this: (30 °C) -1.48 ± 0.19; (37 °C) -1.66 ± 0.34.
For AUUUAGCAAUAUUACGUAUG, in that order: -2.35 ± 0.34 and -0.838 ± 0.41.
For AUUUAGCAAUAUUACGUGUC, in that order: -2.55 ± 0.42 and -2.87 ± 0.43.
The matching figures for AUUUAGCAAUAUUACGUUAG: -3.03 ± 0.47 and -2.61 ± 0.25.
Consider AUUUAGCAAUAUUACGUUUG, for which the “self-splicing fitness (ln)” value is -3.78 ± 0.21 (30 °C) and -1.25 ± 0.16 (37 °C).
For CAAAAGCAAUAUUACGAAGU, in that order: -3.16 ± 0.15 and -2.23 ± 0.13.
For CAAAAGCAAUAUUACGACGC, in that order: -0.886 ± 0.092 and -1.14 ± 0.14.
The matching figures for CAAAAGCAAUAUUACGAUUG: -2.75 ± 0.087 and -1.82 ± 0.1.
In the case of CAAAAGCAAUAUUACGCAGA, the “self-splicing fitness (ln)” value is -2.57 ± 0.25 (30 °C) and -1.49 ± 0.17 (37 °C).
As to CAAAAGCAAUAUUACGCCAC, the “self-splicing fitness (ln)” value runs as follows: (30 °C) -2.1 ± 0.24; (37 °C) -1.89 ± 0.34.
For CAAAAGCAAUAUUACGCGCU, in that order: -3.18 ± 0.14 and -0.642 ± 0.1.
For CAAAAGCAAUAUUACGCUGC, the “self-splicing fitness (ln)” value is -3.02 ± 0.25 (30 °C) and -3.03 ± 0.29 (37 °C).
For CAAAAGCAAUAUUACGGACC, in that order: -3 ± 0.21 and -1.98 ± 0.2.
In the case of CAAAAGCAAUAUUACGGAGC, the “self-splicing fitness (ln)” value is -2.95 ± 0.18 (30 °C) and -2.84 ± 0.25 (37 °C).
In the case of CAAAAGCAAUAUUACGGCCA, the “self-splicing fitness (ln)” value was -1.68 ± 0.21 (30 °C) and -0.283 ± 0.16 (37 °C).
For CAAAAGCAAUAUUACGGGAC, in that order: -3.76 ± 0.35 and -1.71 ± 0.17.
The matching figures for CAAAAGCAAUAUUACGGUAC: -3.79 ± 0.23 and -1.24 ± 0.18.
On to CAAAAGCAAUAUUACGUGUA, for which the “self-splicing fitness (ln)” value is, setting by setting: (30 °C) -3.88 ± 0.16; (37 °C) -2.25 ± 0.1.
On to CAAAAGCAAUAUUACGUUAA, for which the “self-splicing fitness (ln)” value reads like this: (30 °C) -2.65 ± 0.16; (37 °C) -2.06 ± 0.12.
For CAAAAGCAAUAUUACGUUGC, in that order: -3.74 ± 0.18 and -3.17 ± 0.23.
For CAAAAGCAAUAUUACGUUUC, in that order: -3.1 ± 0.28 and -2.76 ± 0.2.
Regarding CAACAGCAAUAUUACGACUU, the “self-splicing fitness (ln)” value (30 °C) is -0.591 ± 0.058 and the “self-splicing fitness (ln)” value (37 °C) was -0.268 ± 0.074.
The matching figures for CAACAGCAAUAUUACGAGCG: -0.235 ± 0.051 and 0.702 ± 0.077.
For CAACAGCAAUAUUACGAUCC, in that order: -2.87 ± 0.2 and -1.4 ± 0.16.
The matching figures for CAACAGCAAUAUUACGAUGC: -3.08 ± 0.15 and -2.01 ± 0.16.
For CAACAGCAAUAUUACGCACA, the “self-splicing fitness (ln)” value reads like this: (30 °C) -1.23 ± 0.077; (37 °C) -0.561 ± 0.083.
The matching figures for CAACAGCAAUAUUACGCCGA: -2.35 ± 0.18 and -1.76 ± 0.17.
For CAACAGCAAUAUUACGCCGC, under “30 °C”, the “self-splicing fitness (ln)” value is -4.57 ± 0.34.
Consider CAACAGCAAUAUUACGCCUU, for which the “self-splicing fitness (ln)” value is, setting by setting: (30 °C) -2.95 ± 0.11; (37 °C) -1.1 ± 0.081.
The matching figures for CAACAGCAAUAUUACGCGGC: -3.03 ± 0.21 and -2.09 ± 0.23.
For CAACAGCAAUAUUACGGAAG, in that order: -0.947 ± 0.045 and -0.607 ± 0.061.
For CAACAGCAAUAUUACGGACC, the “self-splicing fitness (ln)” value is -2.98 ± 0.27 (30 °C) and -0.864 ± 0.23 (37 °C).
The matching figures for CAACAGCAAUAUUACGGAGC: -2.28 ± 0.15 and -3.18 ± 0.27.
For CAACAGCAAUAUUACGGAGU, in that order: -3.71 ± 0.17 and -1.22 ± 0.12.
For the sequence CAACAGCAAUAUUACGGCUA, the “self-splicing fitness (ln)” value reads like this: (30 °C) -1.28 ± 0.073; (37 °C) -0.553 ± 0.073.
For CAACAGCAAUAUUACGGCUG, in that order: -1.27 ± 0.077 and -1.24 ± 0.11.
For CAACAGCAAUAUUACGGUAA, in that order: -1.71 ± 0.089 and -1.61 ± 0.094.
For CAACAGCAAUAUUACGGUUG, in that order: -3.26 ± 0.1 and -2.27 ± 0.12.
On to CAACAGCAAUAUUACGUAAA, for which the “self-splicing fitness (ln)” value by setting is: (30 °C) -2.42 ± 0.069; (37 °C) -1.91 ± 0.098.
The matching figures for CAACAGCAAUAUUACGUAGC: -4.19 ± 0.12 and -2.49 ± 0.12.
For CAACAGCAAUAUUACGUAGU, in that order: -3.22 ± 0.12 and -1.91 ± 0.11.
For CAACAGCAAUAUUACGUCCA, in that order: -1.75 ± 0.11 and -1.35 ± 0.13.
Take CAACAGCAAUAUUACGUCGA: the “self-splicing fitness (ln)” value is -1.37 ± 0.09 (30 °C) and -0.379 ± 0.077 (37 °C).
For the sequence CAACAGCAAUAUUACGUGUA, the “self-splicing fitness (ln)” value was -2.41 ± 0.076 (30 °C) and -1.76 ± 0.075 (37 °C).
Consider CAAGAGCAAUAUUACGAACA, for which, where the note is “37 °C”, the “self-splicing fitness (ln)” value was -2.49 ± 0.33.
Take CAAGAGCAAUAUUACGAAGC: the “self-splicing fitness (ln)” value by setting is: (30 °C) -3.5 ± 0.23; (37 °C) -2.86 ± 0.24.
For the sequence CAAGAGCAAUAUUACGAGGA, the “self-splicing fitness (ln)” value was -3.17 ± 0.33 (30 °C) and -2.79 ± 0.44 (37 °C).
The matching figures for CAAGAGCAAUAUUACGAUCA: -1.72 ± 0.16 and -2.02 ± 0.24.
The matching figures for CAAGAGCAAUAUUACGAUGU: -3.88 ± 0.23 and -2.73 ± 0.25.
The matching figures for CAAGAGCAAUAUUACGCUGG: -3.84 ± 0.3 and -1.99 ± 0.19.
For the sequence CAAGAGCAAUAUUACGCUUG, the “self-splicing fitness (ln)” value (37 °C) was -2.99 ± 0.47.
Turning to CAAGAGCAAUAUUACGGAGA, the “self-splicing fitness (ln)” value was -2.57 ± 0.28 (30 °C) and -1.91 ± 0.22 (37 °C).
The matching figures for CAAGAGCAAUAUUACGGAUU: -3.03 ± 0.25 and -3.21 ± 0.37.
The matching figures for CAAGAGCAAUAUUACGGGGU: -4.66 ± 0.2 and -2.61 ± 0.19.
The matching figures for CAAGAGCAAUAUUACGGUAC: -3.2 ± 0.26 and -2.37 ± 0.21.
As to CAAGAGCAAUAUUACGGUCG, the “self-splicing fitness (ln)” value reads like this: (30 °C) -0.431 ± 0.05; (37 °C) -0.728 ± 0.065.
With CAAGAGCAAUAUUACGUAGU, the “self-splicing fitness (ln)” value (30 °C) was -3.51 ± 0.2 and the “self-splicing fitness (ln)” value (37 °C) is -1.78 ± 0.19.
For CAAGAGCAAUAUUACGUCGU, in that order: -3.72 ± 0.23 and -2.66 ± 0.25.
For CAAGAGCAAUAUUACGUGGU, in that order: -3.24 ± 0.11 and -2.46 ± 0.16.
The matching figures for CAAGAGCAAUAUUACGUUCU: -3.7 ± 0.27 and -3.35 ± 0.23.
Regarding CAAUAGCAAUAUUACGAAAU, the “self-splicing fitness (ln)” value runs as follows: (30 °C) -3.12 ± 0.15; (37 °C) -2.42 ± 0.23.
The matching figures for CAAUAGCAAUAUUACGAAUA: -2.97 ± 0.39 and -3.26 ± 0.32.
With CAAUAGCAAUAUUACGACAC, the “self-splicing fitness (ln)” value is, setting by setting: (30 °C) -3.61 ± 0.34; (37 °C) -1.88 ± 0.21.
For CAAUAGCAAUAUUACGACAG, in that order: -0.279 ± 0.077 and 0.138 ± 0.094.
For CAAUAGCAAUAUUACGACUA, in that order: -1.96 ± 0.36 and -1.31 ± 0.27.
For CAAUAGCAAUAUUACGAGAG, in that order: -3.64 ± 0.23 and -1.52 ± 0.12.
In the case of CAAUAGCAAUAUUACGAUCA, the “self-splicing fitness (ln)” value is, setting by setting: (30 °C) -2.41 ± 0.17; (37 °C) -2.17 ± 0.16.
CAAUAGCAAUAUUACGAUGC: the “self-splicing fitness (ln)” value by setting is: (30 °C) -3.6 ± 0.24; (37 °C) -2.23 ± 0.23.
